We go through seven molecules from patent publication US20180057596A1 (AstraZeneca / MedImmune, published 2018).

T1: human IL-4Rα on TF-1 cells (human, UniProt P24394 26-825)
T1 sequence (looked up): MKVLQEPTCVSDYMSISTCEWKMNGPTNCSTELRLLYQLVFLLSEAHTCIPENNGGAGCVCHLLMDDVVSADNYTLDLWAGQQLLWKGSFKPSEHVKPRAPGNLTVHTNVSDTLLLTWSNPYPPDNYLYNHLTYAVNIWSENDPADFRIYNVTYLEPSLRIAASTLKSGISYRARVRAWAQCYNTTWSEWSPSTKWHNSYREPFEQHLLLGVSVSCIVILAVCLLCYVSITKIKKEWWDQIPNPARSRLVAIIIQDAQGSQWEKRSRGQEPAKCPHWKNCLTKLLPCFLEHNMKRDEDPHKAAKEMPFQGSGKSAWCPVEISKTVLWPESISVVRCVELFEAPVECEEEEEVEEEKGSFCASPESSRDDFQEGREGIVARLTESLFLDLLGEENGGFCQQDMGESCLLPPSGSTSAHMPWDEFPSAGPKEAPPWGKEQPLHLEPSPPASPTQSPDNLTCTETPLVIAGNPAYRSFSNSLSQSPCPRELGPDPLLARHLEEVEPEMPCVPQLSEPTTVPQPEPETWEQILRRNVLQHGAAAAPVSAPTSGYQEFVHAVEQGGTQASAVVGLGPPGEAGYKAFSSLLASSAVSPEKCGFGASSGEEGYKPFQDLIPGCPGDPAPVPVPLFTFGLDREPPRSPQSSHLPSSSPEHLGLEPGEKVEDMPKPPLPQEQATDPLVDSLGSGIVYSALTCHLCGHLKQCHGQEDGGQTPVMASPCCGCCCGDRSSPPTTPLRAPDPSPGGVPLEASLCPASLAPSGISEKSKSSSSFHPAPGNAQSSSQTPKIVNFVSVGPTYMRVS

B1: Antibody 21 IgG (antibody, V domains shown)
VH: QVQLVQSGAEVKKPGASVKVSCKASGYAFTSYYMHWARQAPGQGLEWMGIINPSGGSASYAQKFQGRVTMTRDTSTSTVYMELSSLRSEDTAVYYCARGKYWMYDWGKGTLVTVSS
VL: QSVLTQPPSVSAAPGQKVTISCSGGSSNIGNSYVSWYQQLPGTAPKLLIYDNNKRPSGIPDRFSGSKSGTSATLAITGLQTGDEAVYFCGTWDTSTVWEWPFGTGTKLTVL
B2: Antibody 24 IgG (antibody, V domains shown)
VH: B1 VH with S54R, A58T
VL: B1 VL with V86D
B3: Antibody 4 IgG (antibody, V domains shown)
VH: B1 VH with A58T, Y101W, M103L, D105N
VL: B1 VL with V86D, F88Y, T96S, V97P, W98P, E99Q, W100P, P101I
B4: Antibody 31 IgG (antibody, V domains shown)
VH: B1 VH with A58T
VL: B1 VL with N28S, V86D, F88Y, D93A, T96P
B5: Antibody 42 IgG (antibody, V domains shown)
VH: B1 VH with M48V, A58T, E89G
VL: B1 VL with S2A, Q39R, T43A, V86D, F88Y, V97G
B6: Antibody 7 IgG (antibody, V domains shown)
VH: B1 VH with A58T, Y101W, M103W, Y104Q, D105Y
VL: B1 VL with V86D, F88Y, T96S, V97P, W98P, E99Q, W100P, P101I
B7: Antibody 25 IgG (antibody, V domains shown)
VH: B1 VH with S54R, T69S
VL: B1 VL with S71T, V86D, F88Y, D93V

Where a chain is given by its changes, count along the chain named.

This experiment addresses T1, human IL-4Rα on TF-1 cells. Kind of experiment: cell-based or functional assay.
Turning to B1, the “IC50 (pM), IL-4 induced TF-1 cell proliferation” value is 19.7 pM and the “IC50 (pM), IL-13 induced TF-1 cell proliferation” value stood at 34.7 pM.
For the molecule B2, the “IC50 (pM), IL-4 induced TF-1 cell proliferation” value worked out at 12.6 pM and the “IC50 (pM), IL-13 induced TF-1 cell proliferation” value turned out to be 30.2 pM.
Turning to B3, the “IC50 (pM), IL-4 induced TF-1 cell proliferation” value was determined as 20.9 pM and the “IC50 (pM), IL-13 induced TF-1 cell proliferation” value stood at 58.1 pM.
Take B4: the “IC50 (pM), IL-4 induced TF-1 cell proliferation” value came out at 20.2 pM and the “IC50 (pM), IL-13 induced TF-1 cell proliferation” value was 44.2 pM.
As to B5, the “IC50 (pM), IL-4 induced TF-1 cell proliferation” value came out at 20.2 pM and the “IC50 (pM), IL-13 induced TF-1 cell proliferation” value amounted to 42.7 pM.
As to B6, the “IC50 (pM), IL-4 induced TF-1 cell proliferation” value turned out to be 12.3 pM and the “IC50 (pM), IL-13 induced TF-1 cell proliferation” value was determined as 42.7 pM.
Turning to B7, the “IC50 (pM), IL-4 induced TF-1 cell proliferation” value amounted to 9.8 pM and the “IC50 (pM), IL-13 induced TF-1 cell proliferation” value worked out at 23.2 pM.
